Assay results taken from the nanobody polyreactivity screen of Harvey et al. (2022).

Assay: yeast display, Sf9 membrane polyspecificity reagent, FACS + sequencing; frameworks hold sequencing errors
In short: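 Galactose-induced (36–48 hours) yeast carrying a synthetic nanobody display library were exposed to 10% biotinylated, detergent-solubilized Sf9 membrane reagent at 4 °C for 1 hour. FACS followed streptavidin microbead enrichment, using low and high (top ~1%) gates for expression (anti-HA) and reagent binding (streptavidin). Colony PCR, MiSeq 2 × 250 sequencing and CDR-length filtering followed. Labels for polyreactivity reflect the gate of origin.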

Row | Sequence | polyreactivity (PSR sort gate)
1 | QVQLVESGGGLVQAGGSLRLSCAASGRIFVPYAMGWSRQAPGKEREFVAAISWNTGSTYYADSVKGRFTISRDNAKNTVYLQMNSLNPVDTAVYYCAAGSGVSYEGGYKINGYWGQGTQVTVSS | high polyreactivity
2 | QVHLVESGGGLVQAGGSLRLSSAPSGLTLETNAMGWSRQAPGKERELVAGITYSGGTTYYADSVKGRFTISRDNAKNTVYLQMNSLKPEDTAVYYCAAHTSTSGHNFWGQGTQVTVSS | low polyreactivity
3 | QVQIVESGGGLVQAGGSLRLSCAASGRTFNGYAMGWYRQAPGKERELVARITYRGGGTYYADSVKGRFTISRDNAKNTVYLQMNSLKPEDTAVYYCNAVYHSSGRMGYWGQGTQVTLSS | high polyreactivity
4 | QDQLVESGGGLVQAGGSLRLSCAASGRTFSRYALGWYRQAPGKERELVAAISWSGGTTHYADSVKGRFTISRDNAKNTVYLLMNRLKPEDTAFYYCNKLRQIEFWGQGTQVTVSS | high polyreactivity
5 | QVQLVESGGGLVQAGGSLRLSCAPSGFIFEGNAMGWYRQAPGKERELVATISRSGGRTNYADSVKGRFTISRDNAKNTVYLQMNSLKPEDTAVYYCAAAYLRRVAYDYWGQGTQVTVSS | high polyreactivity
6 | QVQLVESGGGIVQAGGSLRLTCAASGSIFVNNAIGWYIQAPGKERELVADIRRSGGNTYYADSVKGRFTISRDNAKNTVYLQMNSLKPEDTAVYYCNVVRRADSIRAKSRDYWGQGTQVTVSS | high polyreactivity
7 | QVQLVESAGGLVQAGGSLRLSCAASGFTFRSNAIGWYRQAPGKQRELVAAITSRGGSTYYADSVKGRFTISRDNAKNTVYLQMNSLKPVDTAVYYCAAEGRSRKFDYWGQGTQVTVSS | high polyreactivity
8 | QVQLVESGGGLVQAGGSLRLSCAASGNTFVSNARGWYRQAPGKERELVAAIDSGGSTNYADSVKGRFTISRDNAKNTVYLQMNSLKPEDTAVYYCNRTSVYYYYWGQGTQVTVSS | low polyreactivity
9 | QVHLVESGGGLVQAGGSLRLSCAASGSNIYNNAMGWYRQAPGTERELVAAIRSTGTRTYYADSVKGRFTISRDNAKNPVNLQMNSLKPEDTAVYYCAVGDYGLWSYDYWGQGTQVTVSS | low polyreactivity
10 | QVQLVESGGGLVQAGGSLRLSCAASGRIFGYNAMVWYRQAPGKERELVAAISYSGGSTYYADSVKGRFTISRDNAKNTVYLQMNSLKPEDTAVYYCATRPGYWRYEYWGQGTQVTVSS | high polyreactivity
11 | QVQLVESGGGLVQAGGSLRLSCAASGFIFRDNAMGWYRPAPGKERELVAAISKSGGRTYYADSVKGRFTISRDNAKNTVYLQMNSLKPEDTAVYYCAKASRYWSLYYWGQGTQVTVSS | high polyreactivity
12 | QVQHVESGGGFVQAGGSLRLSCAASGITFYDYTMGWYRPAPGKERELVDAITSSGVSTYYADSVKGRFTISRDNAKKTVYLQMNSLKPEDTAVYYCATDAWSVYSYLAFTYDYWGQGTQVTVSS | low polyreactivity
13 | QVQLVESGGGLVQAGGSLRLSCAASGRIFYHNTMGWYRQAPGKERELVAAITTSGSTYYADSVKGRFTISRDNAKNSVYLQMNSLKPEDTSVYYCAARALRWFNYWGQGTQVTVSS | high polyreactivity
14 | QVQLVESGGGLVQAGGSLRLSCAASGITFDYYGMGWYRQAPGKERELFASITSGGSTNYADSVKGRFTISRDNAKNTVYLQMNSLKPEDTAVYYCNAEFWEVSPDPRDYDYWGQGTQVTVSS | low polyreactivity
15 | QVQLVESGGGLVQAGGSLRLSCAASGATFGYYGMGWYRQAHGTERELVAAISTRGDSTYYADSVMGRFTISRDNAKNPVYLQMHSLKPEDPAGYYCAKSRQSSGRVRFDYWGQGTQVTVSS | low polyreactivity
16 | QVQLVESGGGLVQAGGSLRLSCAASGFIFWYNAMGWYRQAPGKERELVADNTSGGSTTYADSVKGRFTISRDNAKNTVYLQMNSLKPEDTAVYYCAASIRRYWLHPGDYWGQGTQVTVSS | low polyreactivity
17 | QVQLVESGGGLVQAGGTLRLSCAASGFIFTGYTMGWYRQAPGKERELVARISSGDSTKYADSVKGRFTISRDNAKNTVYLQMNSLKPEDTAVYYCNKRHGTYGSVYYSREGYWGQGTQVTVSS | high polyreactivity
18 | QVQLVESGGGLVQAGGSLRLSCAASGSIFQLNAKGWYRQAPGKERELVAAITWSGDSTYYADSVKGRFTISRDNAKNTVYLQMNSLKPEDTAVYYCAADVLTTPPPREFEYWGQGTQVTVSS | high polyreactivity
19 | QVQLVESGGGLVQAGGSLRLICAASGRPFTYNMGWYRQAPGKERELVAANDLRRLCEGALHNFTRQCEEYRLFTDVQPETGRYPVYYCNADPAWIWYTFDYWGQGTQVTVSS | low polyreactivity
20 | QVQLVESGGGLVQAGGSLRLSCAASGFTFRRYAMGWYRQAPGKERELVAVITSTDSTYYADSVKGRFTISRDNAKNTVYFQMYSLKPEDTAVYYCARVYLGPRYAVFIYGYWGQGTQVTVSS | high polyreactivity
21 | QVQLVESGGGLVQAGGSLRLSCAASGSIFGTYAMGWYRQAPGKERELVAAISRGGRTYYADSVKGRFTISRDNAKNTVYLQMNSLKPEDTAVYYCAARTVGLRGYYYWGQGTQVTVSS | high polyreactivity
22 | QVQLVESGGGLVQAGGSLRLSCAASGITLDYYAMGWYRQAPGKERELVASITSGGSTNYADSVKGRFTISRDNAKNTVYLQMNSLKPVDTAVYYCARDVNYPGSEGDYWGQGTQVTVSS | low polyreactivity

Row | Sequence | polyreactivity (PSR sort gate)
23 | QVQLVESGGGLVQAGGSLRLSCAASGSTFGVYAMGWYRQAPGKERELVAAINYSGRTYYADSVKGRFTISRDNAKNTVYLQMNSLKPEDTAVYYCAADWYWSRHEYEYWGQGTQVTVSS | high polyreactivity
24 | QVQLVESGGGLVQAGGSLRLSCAASGFIFFVNAMGWYRQAPGKEREFVATITGSGGSTYYADSVKGRFTISRDNAKNTVYLQMYSLKPEDTAVYYCNAETYIDLRGKFPVEYDYWGQGTQVTVSS | low polyreactivity
25 | QVQLVESGGGLVQAGGSLRLSCAASGNTFNPNAMGWYRQAPGKERELVAVIRFRGGSTYYADSVKGRFTISRDNAKNTVYLQMNSLKPEDTAVYYCNVYRGRYLYAWRPRGYWGQGTQVTVSS | high polyreactivity
26 | QVQLVESGGGLVQAGGSHRLSCAASGGTFDDYALGWYRQAPGKERELVAAISSSGGSTYYADSVKGRFTISRDNAKNTVYLQMNSLKPEDTAVYYCAVDAYWRLWYYPYESHHDYWGQGTQVTVSS | low polyreactivity
27 | QVQLVESGGGLVQAGGSLRLSCAASGFIYFDYAMGWDRQAPGKERELVAGISRSGDSTYYADSVKGRFTISRDNAKNTVYLQMNSLKPEDTGVFYCAVVTYRSKAHSSRNGKYYYWGQGTHVTVSS | low polyreactivity
28 | QVQLVESGGGLVQAGGSLRLSCAASGRIFGRYTMGWYRQAPGKERELVAAISARGGSPNYADSVKGRFTISRDNAKNTVYLQLNSLIPEDTAVYYCNTVRVHGFPIDRIYDYWGQVTQVTVSS | high polyreactivity
29 | QVQLVESGGGLVQAGGSLRLSCAASGFTFQYYAMGWYRQAPGKERELVAAINWSGGRTYYADSVKGRFTISRDNAKNTVYLQMNSLKPEDTAVYYCAATRSFSGGYGYVSYDYWGQGTQVTVSS | high polyreactivity
30 | QVQLVESGGGLVQAGGSLRLSCAASGITFSYYAMGWYRQAPGKERELVAAINGGGSRTYYADSVKGRFTISRDNAKNTVYLQMNSLKPEDTAVYYCAAYSGQARGYDYWGQGTQVTVSS | high polyreactivity
31 | QVQLVESGGGLVQAGGSLRLSCAASGRNFGIYAMGWYRQAPGKERELVARITGGGSTNYADSVKGRFTISRDNAKNTVYLQMNSLKPEDTAVYYCAATVRRIVGNITRYDYWGQGTQVTVSS | low polyreactivity
32 | QVPLVESGGGVVQAGGSLRLSCAASGRTYRWNVMGWYRQAPGKERELVATISRRSGSTNYADSVKGRFTISRDNAKNTVYLQINSLKPEDTAVYYCNTDTYFPLYDYWGQGTQVTVSS | low polyreactivity
33 | QVQLVESGGGLVQAGGSLRLSCAASGLIFRYYAMGWYRQAPGKERELVAVISRRGDSTYYADSVKGRFTISRDNAKNTVYLHMNSLKPEDTAVYYCAAQAFVSYFKFRGGYWGQGTQVTVSS | high polyreactivity
34 | QVQLVESGGGLVQAGGSLRLSCAASGRIFVRNTMGWYRQAPGKERELVAAINSGGSTYYADSVKGRFTISRDNENNTVYLQMNSLKPEDTAVYYCAGQFYLFYEYDYWGQGTQVTVSS | high polyreactivity
35 | QVQLVESGGGLVQAGGSLRLSCAASGYTFSGYAMGWYRQAPGKERELVAAITSSGGTTYYADSVKGRFTISRDNAKNTVYLQMNSLKPEDTAVYYCNAYYSHYGDTEDYYWGQGTQVTVSS | high polyreactivity
36 | QVQLVESGGGLVQAGGSLRLSCAASGSIFYYYAMGWYRQAPGKERELVASITSGGRTYYADSVKGRFTISRDNAKNTVYFQMNSLKPEDTAVYYCAAVYGGLTLTRNYNWGQGTQVTVSS | high polyreactivity
37 | QVQLVESGGGLVQAGGSLRLSCAASGSTFSNNTMGWYRQAPGKETELVATIDFNGGSTYYADSVKGRFTISRDNAKNTVYLQMNSLKPEDTAGYYCAAAEYLYTLPYGYWGQGTQVTVSS | low polyreactivity
38 | QVQLVESGGGLVQAGGSLRLSCAASGRIFPPNAMGWYRQAPGKERELVAGITSSGDTTYYADSVKGRFTISRDNAKNTVYLQMNSLKPEDTAVYYCAKDEVYADDRSALFDYWGQGTQVTVSS | low polyreactivity
39 | QVQLVESGGGLVQAGGSLRLSCAASGFTFNTYAMGWYRQAPGKERELVAAITTSGGSTYYADSVKGRFTISRDNAKNTVYLQMNSLKPEDTAVYSCAAKSGRGVVRGRDDYWGQGTQVTVSS | high polyreactivity
40 | QVQLVESGGGLVQAGGSLRLSCAASGRIFAFNVMGWYRQAPGKEREMVAAISTRDGSTYYADSVKGRFTISRDNAKNTVYLQMNSLIPEDTAVYYCNAVVRYYDWGYWDYDYWGQGTQVTVSS | low polyreactivity
41 | QVQLVESGGGLVQAGGSHRLSCAASGITFNVYAMGWYRQATGKERELVAAISYNGGRTYYADSVKGRFTISRDNAKNTVYLQMNSLKPEDTAVYYCNTVSLSLRYDYWGQGTQVTVSS | high polyreactivity
42 | QVQLVESGGGLVQAGGSLRLSCAASGIIFDEYAMGWYRQAPGKERELVAVIDWSGGSTYYADSVKGRFTISRDNAKNTFFLQMNSLKPEDTAVYYCAAEDDSTTPEFDYWGQGTQVTVSS | low polyreactivity
43 | QVQLVESGGGLVQAGGSLRLSCAASGRTFGKYAMGWYRQAPGKERELVATISRSGGSTYYADSVKGRFTISRDNAKNTVYLQMNSLKPEDTAVYYCNAVTSRYIWPPVLDRYHYWGQGTQVTVSS | high polyreactivity
